Measurements published in article PMC10055720.

Target: human TERT∆TEN D788R, FLAG-tagged, co-expressed with TR (human)

- POT1–TPP1-stimulated processivity in the trans complementation primer extension assay, relative to WT: 64%
- total telomerase activity in the trans complementation primer extension assay, relative to WT TERT∆TEN with TEN: 24 % of WT
Substance: human TERT TEN domain (aa 2–197), Myc-tagged (from UniProt O14746 2-197) (domain or fragment)
